# Reference: paper PMC9482650, “Quantitative fragmentomics allow affinity mapping of interactomes” (Nature Communications, 2022)
# T1: APBA1_2, Q02410
# T1 sequence (Q02410 742-832, limits assumed, looked up): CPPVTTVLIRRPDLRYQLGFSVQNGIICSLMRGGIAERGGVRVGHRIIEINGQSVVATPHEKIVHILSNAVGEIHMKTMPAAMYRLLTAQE
# T2: GRIP1_2, Q9Y3R0
# T2 sequence (Q9Y3R0 145-248, limits assumed, looked up): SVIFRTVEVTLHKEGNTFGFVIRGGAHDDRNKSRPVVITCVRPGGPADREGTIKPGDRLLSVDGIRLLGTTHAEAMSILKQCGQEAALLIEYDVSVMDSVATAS
# T3: PCLO, Q9Y6V0
# T3 sequence (Q9Y6V0 4491-4600, limits assumed, looked up): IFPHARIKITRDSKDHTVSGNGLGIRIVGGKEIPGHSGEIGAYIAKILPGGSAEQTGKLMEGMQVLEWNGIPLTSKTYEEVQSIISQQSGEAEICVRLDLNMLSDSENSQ
# T4: GRIP1_3, Q9Y3R0
# T4 sequence (Q9Y3R0 247-346, limits assumed, looked up): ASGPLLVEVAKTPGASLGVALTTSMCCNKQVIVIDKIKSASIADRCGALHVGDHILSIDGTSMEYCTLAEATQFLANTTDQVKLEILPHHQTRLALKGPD
# T5: HTRA4, P83105
# T5 sequence (P83105 378-476, limits assumed, looked up): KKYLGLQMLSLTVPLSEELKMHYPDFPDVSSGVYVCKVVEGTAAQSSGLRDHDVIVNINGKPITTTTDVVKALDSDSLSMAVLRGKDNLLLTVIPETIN
# T6: APBA1_1, Q02410
# T6 sequence (Q02410 651-752, limits assumed, looked up): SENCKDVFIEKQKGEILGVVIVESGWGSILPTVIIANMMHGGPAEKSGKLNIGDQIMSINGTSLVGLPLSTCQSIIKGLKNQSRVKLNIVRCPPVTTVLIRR
# T7: GRIP1_4, Q9Y3R0
# T7 sequence (Q9Y3R0 467-571, limits assumed, looked up): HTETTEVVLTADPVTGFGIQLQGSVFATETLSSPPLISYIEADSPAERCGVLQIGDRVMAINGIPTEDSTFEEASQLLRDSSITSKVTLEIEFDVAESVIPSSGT
# T8: LRRC7, Q96NW7
# T8 sequence (Q96NW7 1440-1537, limits assumed, looked up): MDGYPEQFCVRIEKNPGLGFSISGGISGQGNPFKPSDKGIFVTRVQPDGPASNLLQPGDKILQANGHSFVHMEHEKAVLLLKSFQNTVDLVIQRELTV
# T9: PARD3B_1, Q8TEW8
# T9 sequence (Q8TEW8 196-299, limits assumed, looked up): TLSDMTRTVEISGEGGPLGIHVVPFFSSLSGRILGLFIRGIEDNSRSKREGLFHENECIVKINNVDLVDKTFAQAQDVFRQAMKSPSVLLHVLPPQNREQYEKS
# T10: TIAM2, Q8IVF5
# T10 sequence (Q8IVF5 885-986, limits assumed, looked up): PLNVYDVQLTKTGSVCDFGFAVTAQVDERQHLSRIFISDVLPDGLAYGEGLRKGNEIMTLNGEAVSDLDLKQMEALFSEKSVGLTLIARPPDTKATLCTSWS
# T11: LIN7A, O14910
# T11 sequence (O14910 103-200, limits assumed, looked up): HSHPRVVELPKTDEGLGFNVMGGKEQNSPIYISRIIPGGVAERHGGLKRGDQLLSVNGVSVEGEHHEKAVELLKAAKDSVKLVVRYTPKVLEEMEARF
# Molecular target: FRMPD2_2, Q68DX3
# Sequence (Q68DX3 944-1038): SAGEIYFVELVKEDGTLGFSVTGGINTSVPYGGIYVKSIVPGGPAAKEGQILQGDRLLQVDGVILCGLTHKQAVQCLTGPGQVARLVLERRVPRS
# Test: holdup assay
# Design: key: below the threshold = too weak to quantify, mostly under pKd 3.1 to 4
# Conditions: plain residues with an end cap or a label only (N-terminal biotin on a linker: ahx)
row,Binder,pKd
1,"EKQAKGDTEF [CACYBP, Q9HB71]",below the threshold

# Molecular target: DLG5_1, Q8TDM6
# Sequence (Q8TDM6 617-713): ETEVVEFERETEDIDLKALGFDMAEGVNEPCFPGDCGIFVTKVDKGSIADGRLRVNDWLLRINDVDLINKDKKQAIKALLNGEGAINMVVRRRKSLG
# Test: holdup assay
# Design: key: below the threshold = too weak to quantify, mostly under pKd 3.1 to 4
# Conditions: plain residues with an end cap or a label only (N-terminal biotin on a linker: ahx)
row,Binder,pKd
1,"EKQAKGDTEF [CACYBP, Q9HB71]",below the threshold

# Molecular target: MAGI2_2, Q86UL8
# Sequence (Q86UL8 410-522): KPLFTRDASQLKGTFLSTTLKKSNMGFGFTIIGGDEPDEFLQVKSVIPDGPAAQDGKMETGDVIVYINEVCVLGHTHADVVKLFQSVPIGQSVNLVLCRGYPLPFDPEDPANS
# Test: holdup assay
# Design: key: below the threshold = too weak to quantify, mostly under pKd 3.1 to 4
# Conditions: plain residues with an end cap or a label only (N-terminal biotin on a linker: ahx)
row,Binder,pKd
1,"EKQAKGDTEF [CACYBP, Q9HB71]",below the threshold

# Molecular target: PICK1, Q9NRD5
# Sequence (Q9NRD5 17-115): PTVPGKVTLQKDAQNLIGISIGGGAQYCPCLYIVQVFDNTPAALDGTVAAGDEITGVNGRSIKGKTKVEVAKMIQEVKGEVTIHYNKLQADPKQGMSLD
# Test: holdup assay
# Design: key: below the threshold = too weak to quantify, mostly under pKd 3.1 to 4
# Conditions: plain residues with an end cap or a label only (N-terminal biotin on a linker: ahx)
row,Binder,pKd
1,"EKQAKGDTEF [CACYBP, Q9HB71]",below the threshold

# Molecular target: Inadl_9, Q8NI35
# Sequence (Q8NI35 1530-1615): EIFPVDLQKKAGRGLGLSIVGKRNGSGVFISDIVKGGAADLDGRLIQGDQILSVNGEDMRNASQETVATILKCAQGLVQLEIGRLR
# Test: holdup assay
# Design: key: below the threshold = too weak to quantify, mostly under pKd 3.1 to 4
# Conditions: plain residues with an end cap or a label only (N-terminal biotin on a linker: ahx)
row,Binder,pKd
1,"EKQAKGDTEF [CACYBP, Q9HB71]",below the threshold

# Molecular target: Inadl_8, Q8NI35
# Sequence (Q8NI35 1425-1530): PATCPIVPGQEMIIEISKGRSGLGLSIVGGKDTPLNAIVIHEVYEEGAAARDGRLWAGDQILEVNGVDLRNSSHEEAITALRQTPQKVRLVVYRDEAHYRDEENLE
# Test: holdup assay
# Design: key: below the threshold = too weak to quantify, mostly under pKd 3.1 to 4
# Conditions: plain residues with an end cap or a label only (N-terminal biotin on a linker: ahx)
row,Binder,pKd
1,"EKQAKGDTEF [CACYBP, Q9HB71]",below the threshold

# Molecular target: T1, APBA1_2, Q02410
# Test: holdup assay
# Design: key: below the threshold = too weak to quantify, mostly under pKd 3.1 to 4
# Conditions: plain residues with an end cap or a label only (N-terminal biotin on a linker: ahx)
row,Binder,pKd
1,"EKQAKGDTEF [CACYBP, Q9HB71]",below the threshold

# Molecular target: T2, GRIP1_2, Q9Y3R0
# Test: holdup assay
# Design: key: below the threshold = too weak to quantify, mostly under pKd 3.1 to 4
# Conditions: plain residues with an end cap or a label only (N-terminal biotin on a linker: ahx)
row,Binder,pKd
1,"EKQAKGDTEF [CACYBP, Q9HB71]",below the threshold

# Molecular target: GOPC, Q9HD26
# Test: holdup assay
# Design: key: below the threshold = too weak to quantify, mostly under pKd 3.1 to 4
# Conditions: plain residues with an end cap or a label only (N-terminal biotin on a linker: ahx)
row,Binder,pKd
1,"EKQAKGDTEF [CACYBP, Q9HB71]",below the threshold

# Molecular target: T3, PCLO, Q9Y6V0
# Test: holdup assay
# Design: key: below the threshold = too weak to quantify, mostly under pKd 3.1 to 4
# Conditions: plain residues with an end cap or a label only (N-terminal biotin on a linker: ahx)
row,Binder,pKd
1,"EKQAKGDTEF [CACYBP, Q9HB71]",below the threshold

# Molecular target: GRIP2_3, Q9C0E4
# Sequence (Q9C0E4 238-339): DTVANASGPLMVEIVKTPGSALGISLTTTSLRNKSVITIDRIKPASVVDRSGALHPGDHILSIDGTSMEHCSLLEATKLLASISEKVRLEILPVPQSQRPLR
# Test: holdup assay
# Design: key: below the threshold = too weak to quantify, mostly under pKd 3.1 to 4
# Conditions: plain residues with an end cap or a label only (N-terminal biotin on a linker: ahx)
row,Binder,pKd
1,"EKQAKGDTEF [CACYBP, Q9HB71]",below the threshold

# Molecular target: ARHGEF12, Q9NZN5-2
# Sequence (Q9NZN5 other isoform, or with tags, fused parts or gaps): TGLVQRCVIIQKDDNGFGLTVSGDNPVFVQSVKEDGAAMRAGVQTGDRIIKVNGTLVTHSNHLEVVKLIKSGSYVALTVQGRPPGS
# Test: holdup assay
# Design: key: below the threshold = too weak to quantify, mostly under pKd 3.1 to 4
# Conditions: plain residues with an end cap or a label only (N-terminal biotin on a linker: ahx)
row,Binder,pKd
1,"EKQAKGDTEF [CACYBP, Q9HB71]",below the threshold

# Molecular target: T4, GRIP1_3, Q9Y3R0
# Test: holdup assay
# Design: key: below the threshold = too weak to quantify, mostly under pKd 3.1 to 4
# Conditions: plain residues with an end cap or a label only (N-terminal biotin on a linker: ahx)
row,Binder,pKd
1,"EKQAKGDTEF [CACYBP, Q9HB71]",below the threshold

# Molecular target: PDZRN4_1, Q6ZMN7
# Sequence (Q6ZMN7 213-318): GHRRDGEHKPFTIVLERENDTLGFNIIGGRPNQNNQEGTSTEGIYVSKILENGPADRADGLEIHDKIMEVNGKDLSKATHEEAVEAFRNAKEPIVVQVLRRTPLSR
# Test: holdup assay
# Design: key: below the threshold = too weak to quantify, mostly under pKd 3.1 to 4
# Conditions: plain residues with an end cap or a label only (N-terminal biotin on a linker: ahx)
row,Binder,pKd
1,"EKQAKGDTEF [CACYBP, Q9HB71]",below the threshold

# Molecular target: T5, HTRA4, P83105
# Test: holdup assay
# Design: key: below the threshold = too weak to quantify, mostly under pKd 3.1 to 4
# Conditions: plain residues with an end cap or a label only (N-terminal biotin on a linker: ahx)
row,Binder,pKd
1,"EKQAKGDTEF [CACYBP, Q9HB71]",below the threshold

# Molecular target: NHERF2_2, Q15599
# Sequence (Q15599 142-238): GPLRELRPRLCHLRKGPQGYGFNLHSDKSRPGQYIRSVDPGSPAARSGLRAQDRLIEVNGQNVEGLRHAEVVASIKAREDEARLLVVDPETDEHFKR
# Test: holdup assay
# Design: key: below the threshold = too weak to quantify, mostly under pKd 3.1 to 4
# Conditions: plain residues with an end cap or a label only (N-terminal biotin on a linker: ahx)
row,Binder,pKd
1,"EKQAKGDTEF [CACYBP, Q9HB71]",3.55

# Molecular target: Inadl_2, Q8NI35
# Sequence (Q8NI35 238-335): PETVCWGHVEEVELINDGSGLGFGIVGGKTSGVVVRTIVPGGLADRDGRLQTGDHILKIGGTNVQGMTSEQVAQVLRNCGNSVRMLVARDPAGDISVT
# Test: holdup assay
# Design: key: below the threshold = too weak to quantify, mostly under pKd 3.1 to 4
# Conditions: plain residues with an end cap or a label only (N-terminal biotin on a linker: ahx)
row,Binder,pKd
1,"EKQAKGDTEF [CACYBP, Q9HB71]",below the threshold

# Molecular target: NOS1, P29475
# Sequence (P29475 9-101): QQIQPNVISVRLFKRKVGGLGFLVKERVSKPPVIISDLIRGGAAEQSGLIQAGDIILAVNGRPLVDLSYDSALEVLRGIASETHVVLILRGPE
# Test: holdup assay
# Design: key: below the threshold = too weak to quantify, mostly under pKd 3.1 to 4
# Conditions: plain residues with an end cap or a label only (N-terminal biotin on a linker: ahx)
row,Binder,pKd
1,"EKQAKGDTEF [CACYBP, Q9HB71]",below the threshold

# Molecular target: T6, APBA1_1, Q02410
# Test: holdup assay
# Design: key: below the threshold = too weak to quantify, mostly under pKd 3.1 to 4
# Conditions: plain residues with an end cap or a label only (N-terminal biotin on a linker: ahx)
row,Binder,pKd
1,"EKQAKGDTEF [CACYBP, Q9HB71]",below the threshold

# Molecular target: T7, GRIP1_4, Q9Y3R0
# Test: holdup assay
# Design: key: below the threshold = too weak to quantify, mostly under pKd 3.1 to 4
# Conditions: plain residues with an end cap or a label only (N-terminal biotin on a linker: ahx)
row,Binder,pKd
1,"EKQAKGDTEF [CACYBP, Q9HB71]",below the threshold

# Molecular target: T8, LRRC7, Q96NW7
# Test: holdup assay
# Design: key: below the threshold = too weak to quantify, mostly under pKd 3.1 to 4
# Conditions: plain residues with an end cap or a label only (N-terminal biotin on a linker: ahx)
row,Binder,pKd
1,"EKQAKGDTEF [CACYBP, Q9HB71]",below the threshold

# Molecular target: PARD3_3, Q8TEW0
# Sequence (Q8TEW0 582-685): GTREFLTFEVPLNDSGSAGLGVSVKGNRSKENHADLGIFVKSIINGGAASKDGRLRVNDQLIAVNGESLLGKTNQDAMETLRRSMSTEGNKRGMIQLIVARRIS
# Test: holdup assay
# Design: key: below the threshold = too weak to quantify, mostly under pKd 3.1 to 4
# Conditions: plain residues with an end cap or a label only (N-terminal biotin on a linker: ahx)
row,Binder,pKd
1,"EKQAKGDTEF [CACYBP, Q9HB71]",below the threshold

# Molecular target: T9, PARD3B_1, Q8TEW8
# Test: holdup assay
# Design: key: below the threshold = too weak to quantify, mostly under pKd 3.1 to 4
# Conditions: plain residues with an end cap or a label only (N-terminal biotin on a linker: ahx)
row,Binder,pKd
1,"EKQAKGDTEF [CACYBP, Q9HB71]",below the threshold

# Molecular target: T10, TIAM2, Q8IVF5
# Test: holdup assay
# Design: key: below the threshold = too weak to quantify, mostly under pKd 3.1 to 4
# Conditions: plain residues with an end cap or a label only (N-terminal biotin on a linker: ahx)
row,Binder,pKd
1,"EKQAKGDTEF [CACYBP, Q9HB71]",below the threshold

# Molecular target: T11, LIN7A, O14910
# Test: holdup assay
# Design: key: below the threshold = too weak to quantify, mostly under pKd 3.1 to 4
# Conditions: plain residues with an end cap or a label only (N-terminal biotin on a linker: ahx)
row,Binder,pKd
1,"EKQAKGDTEF [CACYBP, Q9HB71]",below the threshold

# Molecular target: DLG2_2, Q15700
# Sequence (Q15700 189-283): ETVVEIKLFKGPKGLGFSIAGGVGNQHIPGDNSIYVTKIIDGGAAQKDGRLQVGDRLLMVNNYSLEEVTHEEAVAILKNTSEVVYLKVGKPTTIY
# Test: holdup assay
# Design: key: below the threshold = too weak to quantify, mostly under pKd 3.1 to 4
# Conditions: plain residues with an end cap or a label only (N-terminal biotin on a linker: ahx)
row,Binder,pKd
1,"EKQAKGDTEF [CACYBP, Q9HB71]",below the threshold
